The text below walks through data of PMC3669356.

By Kd is commonly meant a measure of binding affinity in units of concentration. A word on the koff: it is the first-order rate constant of dissociation. What is called kon is the second-order rate constant of association.

For assay [1], the target named is Schistosoma japonicum GST (GST-Sj), purified recombinant (Schistosoma japonicum) [GST: P08515]. Briefly: SPR. (In general: SPR reads the build-up and loss of mass on a sensor chip optically.)
Assay [2] concerns the target rat GSTM1, purified recombinant (rat). Briefly: SPR; BIAcore; GSTM1 or GSTP1 immobilised by amine coupling on CM5 chips; AMPK 221WT injected (10 nM, or a concentration series) at 30 µl/min; 10 mM HEPES pH 7.4, 100 mM NaCl, 50 μM EDTA, 0.005% Surfactant P20; Langmuir 1:1 fit.

Regarding “AMPK α2T172Dβ2γ1 mutant (221TD) (from UniProt Q09137 1-552; Q9QZH4 1-271; P80385 1-330) (complex)”, the equilibrium response in assay [1] turned out to be 121 RU.

For “AMPK α2β2γ1 (221WT) (from UniProt Q09137 1-552; Q9QZH4 1-271; P80385 1-330) (complex)”, in assay [2], the Kd came out at 5 nM, the dissociation rate constant (koff) was 0.0016 s⁻¹ and the kon worked out at 310000 M⁻¹ s⁻¹. Moreover, in assay [1], the equilibrium response was found to be 203 RU.
